Measured values: patent US20240343803A1 (SHANDONG SIMCERE BIOPHARMACEUTICAL, published 2024)
Positions count from the first letter of the chain named.

B1: PVRIG-A118-H4 (Fc fusion)
chain: EVQLVESGGGLVQPGGSLRLSCAASETYFDLYVMGWYRQAPGKDRELVATITYTGSIKYVDSVKGRFTISRGDAKNSLSLQMNSLRAEDTAVYYCNADPSGLGRKVYWGQGTMVTVSS
notes: humanized variant of PVRIG-A118; also called A118.VH4; not shown: constant part not restated for the humanized forms; parents are VHH-hinge-CH2-CH3 of human IgG1; detected by anti-human
B2: PVRIG-A118-H5 (Fc fusion)
chain: B1 chain with L78V, S79Y
notes: humanized variant of PVRIG-A118; also called A118.VH5; not shown: constant part not restated for the humanized forms; parents are VHH-hinge-CH2-CH3 of human IgG1; detected by anti-human
B3: PVRIG-A50-H1a (Fc fusion)
chain: EVQLVESGGGLVQPGGSLRLSCAASGFTFSYYDMSWVRQAPGKGLEWVSTINSDGGRTSYVDSVKGRFTISRDNSKNTLYLQMNSLRAEDTAVYYCVEGDPHNFGLENLSLRDFGSWGQGTMVTVSS
notes: humanized variant of PVRIG-A50; also called A50.VH1a; not shown: constant part not restated for the humanized forms; parents are VHH-hinge-CH2-CH3 of human IgG1; detected by anti-human
B4: PVRIG-A50-H1b (Fc fusion)
chain: B3 chain with N108S
notes: humanized variant of PVRIG-A50; also called A50.VH1b; not shown: constant part not restated for the humanized forms; parents are VHH-hinge-CH2-CH3 of human IgG1; detected by anti-human
B5: PVRIG-A50-H1c (Fc fusion)
chain: B3 chain with S110A
notes: humanized variant of PVRIG-A50; also called A50.VH1c; not shown: constant part not restated for the humanized forms; parents are VHH-hinge-CH2-CH3 of human IgG1; detected by anti-human
B6: PVRIG-A50-H2a (Fc fusion)
chain: B3 chain with D54N, G55A, S75T, N108S
notes: humanized variant of PVRIG-A50; also called A50.VH2a; not shown: constant part not restated for the humanized forms; parents are VHH-hinge-CH2-CH3 of human IgG1; detected by anti-human
B7: PVRIG-A50-H1e (Fc fusion)
chain: B3 chain with D54N, G55A, N108S
notes: humanized variant of PVRIG-A50; also called VH1e; not shown: constant part not restated for the humanized forms; parents are VHH-hinge-CH2-CH3 of human IgG1; detected by anti-human
B8: PVRIG-A105-H1 (Fc fusion)
chain: EVQLVESGGGLVQPGGSLRLSCAASGRTFDRHTMSWFRQAPGKEREFVATASRIPGDTYYVDSVKGRFTISRDNAKNSLYLQMNSLRAEDTAVYYCAATSAYCSEVDCYEKGSWYDNWGQGTMVTVSS
notes: humanized variant of PVRIG-A105; also called A105.VH1; not shown: constant part not restated for the humanized forms; parents are VHH-hinge-CH2-CH3 of human IgG1; detected by anti-human
B9: PVRIG-A105-H4 (Fc fusion)
chain: B8 chain with S35T, V61S, D62H
notes: humanized variant of PVRIG-A105; also called A105.VH4; not shown: constant part not restated for the humanized forms; parents are VHH-hinge-CH2-CH3 of human IgG1; detected by anti-human
B10: PVRIG-A105-H3 (Fc fusion)
chain: B8 chain with S35T, L79V
notes: humanized variant of PVRIG-A105; also called A105.VH3; not shown: constant part not restated for the humanized forms; parents are VHH-hinge-CH2-CH3 of human IgG1; detected by anti-human

Columns and labels:
[1] = biological target: T1, human PVRIG on FlpinCHO-PVRIG cells (human, UniProt Q6DKI7 41-326); experiment: FACS, FlpinCHO-PVRIG cells
T1 construct: whole, on cells
T1 sequence (looked up): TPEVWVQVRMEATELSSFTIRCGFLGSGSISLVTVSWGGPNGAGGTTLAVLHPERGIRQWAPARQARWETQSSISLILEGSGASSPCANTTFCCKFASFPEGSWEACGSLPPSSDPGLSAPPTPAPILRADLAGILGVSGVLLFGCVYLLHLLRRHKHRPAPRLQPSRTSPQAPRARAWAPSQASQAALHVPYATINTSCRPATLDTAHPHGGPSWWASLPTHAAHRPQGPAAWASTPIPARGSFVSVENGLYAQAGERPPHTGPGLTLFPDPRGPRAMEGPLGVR
Method: The Ham's F12 (Gibico, 21127-022) complete medium containing 10% FBS was then added to terminate the digestion and acquire cell suspension. After counting with a cell counter (Beckman Coulter, Vi-CELL), an appropriate amount of cell suspension was centrifuged at 350×g to remove the supernatant, washed twice with PBS, stained with Zombie violet (Biolegend, 423114) and incubated at room temperature for 20 minutes. After incubation, the cells were added with staining buffer (2% FBS+PBS) to stop staining, centrifuged at 350×g to remove the supernatant, washed twice and resuspended with staining buffer to a density of 2×10⁶ cells/mL. The cells were plated into a 96-well plate (50 μL of cell suspension per well) for further use. The antibodies were diluted from the highest concentration of 46 nM (two-fold concentration) with staining buffer by 3.3-fold serial dilution. The diluted antibodies were added to the well containing 50 μL of cell suspension. The plate was placed on a microplate shaker at 400 rpm for 1 minute to fully mix the antibodies and cells, and then incubated at 4° C. for 30 minutes. After the incubation, the cells were washed twice with staining buffer (200 μL per well) and centrifuged at 350×g for 5 minutes to discard the supernatant. The PE goat anti-human IgG Fc antibody (ebioscience, 12-4998-82) was diluted 250 times with staining buffer, added into the washed wells (100 μL per well), mixed well, and stained at 4° C. for 30 minutes. After staining, the cells were washed twice with staining buffer, finally resuspended with 200 μL staining buffer and analyzed by flow cytometry (BD, Canto II). The stronger the signal, the stronger the ability of the antibodies binds to PVRIG. An antibody binding curve was drawn with concentration of antibodies as the abscissa and the corresponding Mean Fluorescence Intensity (MFI) as the ordinate. The AUC value of the curve was calculated by using a Four Parameter Logistic Fit (GraphPadPrism9). The stronger the AUC value, the stronger the ability of the antibodies binds to FlpinCHO-PVRIG and FlpinCHO-cyno PVRIG. […] The binding activity of the antibodies was normalized to the positive control COM701-hIgG1 and SRF813-hIgG1.

[2] = biological target: T2, human PVRIG-his (AcroBiosystems, Cat NO. PVG-H52H4) (human, UniProt Q6DKI7 41-171, limits assumed); experiment: competition ELISA, PVRIG-His coated, competitor human PVRL2-mFc; parameters: AUC: unit not given here
T2 construct: also called human PVRIG protein
T2 sequence (looked up): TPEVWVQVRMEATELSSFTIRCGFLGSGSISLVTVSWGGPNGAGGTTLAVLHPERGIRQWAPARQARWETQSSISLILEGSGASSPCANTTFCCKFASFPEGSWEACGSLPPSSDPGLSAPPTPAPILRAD
Method: The ELISA plate was pre-coated with 100 μL/well of 0.5 μg/mL human PVRIG-his protein (AcroBiosystems, Cat NO. PVG-H52H4). The tested anti-PVRIG antibodies were diluted from the highest concentration of 16 nM (two-fold concentration). The diluted antibodies were mixed with 18 ng/ml human PVRL2-mFc (AcroBiosystems, Cat NO. CD2-H5257) in equal volume, added into the plate (100 μL/well), and incubated with shaking at room temperature for 2.0 hours. […] A HRP substrate, TMB (Thermo, Cat NO. 34029) was added into wells after washing the plate again for color development. After adding a termination solution to terminate the reaction, the absorbance value was read by a microplate reader (MD i3×). An inhibiting curve was drawn with concentration of antibodies as the abscissa and the corresponding OD value as the ordinate. The IC50 value was calculated by using a Four Parameter Logistic Fit (GraphPadPrism9). The smaller the IC50 value, the stronger the ability of the antibodies inhibits the binding between PVRIG and PVRL2. The positive and negative controls are the same as in Example 8.
The methods refer to Example 11. The inhibiting activity of the humanized antibodies was normalized to the corresponding parental antibodies. If the percentage value is higher than 100%, the inhibiting effect of humanized antibodies is better than that of parental antibodies.

[3] = biological target: T2, human PVRIG-his (AcroBiosystems, Cat …); experiment: SPR (BIAcore), antibody captured on Protein A chip, human PVRIG-His analyte
Method: Biacore was used to detect the specific binding between anti-PVRIG antibody and human PVRIG protein. Protein A chip was used in the BIAcore assay. The time required for the chip to capture the diluted antibody and saturate the binding antigen to reach Rₘₐₓ (Maximum binding capacity, 50 RU) was measured by manual run. […] The affinity of antibody for antigen was measured by multi-cycle kinetics. In each cycle, the antibodies were injected prior to the injection of gradient concentraions of PVRIG proteins allowing the occurrence of antibody-antigen association and dissociation After each cycle, the Protein A chip was regenerated by Glycine, pH 1.5 (to remove the proteins on the chip). The affinity of antibody for antigen was calculated by BIAcore T200 analysis software.
The methods refer to Example 10.

Row | Binder | AUC % to COM701-hIgG1 [1] [%] | AUC % to SRF813-hIgG1 [1] [%] | AUC % to parental Ab [1] [%] | % relative activity (AUC) parental antibody/test antibody [2] [%] | % relative activity (IC50) parental antibody/test antibody [2] [%] | AUC [2] | IC50 [2] [nM] | Kd [3] [nM] | koff [3] [s⁻¹] | kon [3] [M⁻¹ s⁻¹]
1 | B1 | 132 | 185 | 97 | 112 | 120 | 1.42 | 0.462 | 1.21 | 0.00327 | 2.69e+06
2 | B2 | 128 | 179 | 93.9 | 114 | 146 | 1.39 | 0.381 | 1.37 | 0.00383 | 2.79e+06
3 | B3 | 70.4 | 125 | 96 | 82.5 | 73 | 2.43 | 1.06 | 0.0451 | 1.92e-05 | 425000
4 | B4 | 60.5 | 107 | 82.5 | 105 | 125 | 2 | 0.847 | 0.0804 | 2.82e-05 | 350000
5 | B5 | 69.2 | 122 | 94.2 | 76.3 | 65.9 | 2.62 | 1.18 | 0.0462 | 2.03e-05 | 438000
6 | B6 | 61.9 | 110 | 84.4 | 86.4 | 85.3 | 2.32 | 0.911 | 0.0585 | 1.61e-05 | 276000
7 | B7 | 60.3 | 107 | 82.2 | 86.2 | 79.5 | 2.32 | 0.977 | 0.0551 | 1.46e-05 | 265000
8 | B8 | 123 | 185 | 99.1 | 112 | 133 | 2.27 | 0.555 | 0.932 | 0.0013 | 1.39e+06
9 | B9 | 115 | 174 | 93.1 | 109 | 107 | 2.32 | 0.686 | 0.796 | 0.000773 | 972000
10 | B10 | 125 | 189 | 101 | 101 | 97.9 | 2.52 | 0.752 | 0.622 | 0.000576 | 925000
